Source: patent US12365710B2, “HMGB1 protein derivatives for the removal of biofilms” (RESEARCH INSTITUTE AT NATIONWIDE CHILDREN'S HOSPITAL, priority 2018, dated 2025)

B1: B-linker Box: HMGB1 B Box with N- and C-terminal linker (80-179; 80 to 176 in b258), 97 amino acid (protein, UniProt P09429 80-179, looked up, fragment)
chain: PPKGETKKKFKDPNAPKRPPSAFFLFCSEYRPKIKGEHPGLSIGDVAKKLGEMWNNTAADDKQPYEKKAAKLKEKYEKDIAAYRAKGKPDAAKKGVVKAE
B2: mHMGB1: engineered C45S variant of full length rHMGB1 that mimics the reduced form of HMGB1 (protein, UniProt P09429 1-215, looked up, variant C45S)
chain: MGKGDPKKPRGKMSSYAFFVQTCREEHKKKHPDASVNFSEFSKKSSERWKTMSAKEKGKFEDMAKADKARYEREMKTYIPPKGETKKKFKDPNAPKRPPSAFFLFCSEYRPKIKGEHPGLSIGDVAKKLGEMWNNTAADDKQPYEKKAAKLKEKYEKDIAAYRAKGKPDAAKKGVVKAEKSKKKKEEEEDEEDEEDEEEEEDEEDEDEEEDDDDE
modifications: full-length
notes: engineered C45S variant of full length rHMGB1 that mimics the reduced form of HMGB1

Tested on: Klebsiella pneumoniae biofilms
Test: in vitro disruption of pre-formed biofilms, LIVE/DEAD, CLSM and COMSTAT
Type: cell-based
Details: for disruption of established K. pneumoniae biofilms (average thickness, biomass): 200 nM added at 24 h, 16 h incubation; for % reduction in average thickness (AT), mean±SE / % reduction in biomass (BM), mean±SE: 200 nM added to pre-formed biofilms at 24 h, read at 40 h, vs untreated KP biofilms
Protocol: FIGS. 5A-5E: Anti-biofilm effect of HMGB1 variants on high priority bacterial pathogens. Indicated HMGB1 variants or antibodies against DNABII proteins (α-1HFEc 1gG, 1 μM) were added at 24 h to the respective preformed bacterial biofilms, in vitro. After 16 h of Incubation, biofilms were stained with LIVE/DEAD®, then visualized via confocal laser scanning microscopy. Images were analyzed by COMSTAT to calculate average thickness and comparison to control was plotted. (FIG. 5A) Full-length HMGB1 isoforms (200 nM unless otherwise indicated) added to UPEC, B. cenocepacia, NTHI, or ESKAPE pathogens. 800 nM rHMGB1 and 200 nM mHMGB1 were added for S. aureus (ESKAPE). 800 nM rHMGB1, 800 nM mHMGB1, or 3.3 μM of α-1HFEc 1gG were added for E. faecium (ESKAPE) and were incubated for 1 h as opposed to 16 h to avoid potential degradation by E. faecium proteases. (FIG. 5B) Representative images of UPEC biofilms incubated with increasing concentrations of rHMGB1. (FIG. 5C) Individual domains of HMGB1 (200 nM) were tested for anti-biofilm activity as above (dotted line indicates control values). Bars represent the SEM. Statistical significance compared to control was assessed with unpaired t-tests, *P<0.05. […] (FIGS. 5D-5E) HMGB1 and variants disrupt preformed Klebsiella pneumoniae biofilms. rHMGB1, HMGB1 C45S (mHMGB1), bovine HMGB1 (bHMGB1), B box, B Box C106S (mB Box), A Box, and A+B Box were added (200 nM) at 24 h to preformed K. pneumoniae biofilms. After 16 h of incubation, biofilms were stained with LIVE/DEAD®, then visualized via confocal laser scanning microscopy. Images were analyzed by COMSTAT to calculate average thickness and total biomass. Error bars represent the SEM. ***P<0.0001; ns=not significant.
An in vitro biofilm assay was used to test the effect of HMGB1 and its variants on established bacterial biofilms. Applicant expressed, (in E. coli) and purified >95% human recombinant full length HMGB1 (rHMGB1; 1-215), a C45S mutated variant (mHMGB1) and the HMGB1 domains A Box (1-89), A+B Boxes (1-176), B Box (80-179), and B Box C106S (mB Box) (FIG. 3). […] To evaluate the effect of HMGB1 and its variants as well as a commercially available native bovine HMGB1 (used as a control) on established bacterial biofilms, each protein was added (at 200 nM), to pre-formed Klebsiella pneumoniae biofilms after 24 h of growth. After a 16 h incubation (40 h total biofilm growth), the biofilms were stained with LIVE/DEAD® and analyzed using confocal laser scanning microscopy (CLSM) and COMSTAT analysis to calculate the average thickness and total biomass of the biofilms. […] The results of this study lead to a noteworthy observation that a single dose of these non-antimicrobial compounds was able to disrupt recalcitrant biofilms. In addition, the HMGB1 variants have disrupted every bacterial species tested to date, which includes Uropathogenic E. coli, Burkholderia cenocepacia, Nontypeable Haemophilus influenzae (FIG. 6). A single dose at this concentration released of bacteria from their protective shield makes them vulnerable to clearance by antibiotics and the immune system.
Klebsiella pneumoniae (KP), a common cause of nosocomial infections was used for all BBs disruption assays. Human recombinant full length HMGB1 (rHMGB1; 1-215), a C45S mutation variant (mHMGB1) and the HMGB1 domains A Box (1-89), B Box (90-176), AB Boxes (1-176), B-linker Box (80-179), and B-linker Box C106S were expressed (in E. coli) and purified to >95%. To evaluate the effect of rHMGB1 and the various domains on established BBs, each protein species (200 nM) was added to pre-formed BBs at 24 h. At 40 h the BBs were washed, stained with LIVE/DEAD®, visualized via confocal laser scanning microscopy and images were analyzed by COMSTAT to calculate average thickness and biomass.

Molecule | disruption of established K. pneumoniae biofilms (average thickness, biomass) | % reduction in average thickness (AT), mean±SE | % reduction in biomass (BM), mean±SE
rHMGB1: tagless human recombinant full length HMGB1 (1-215) expressed in E. coli | significantly disrupt | 44%±0.33 | 61%±0.01
B1 | retained full anti-biofilm activity | 77%±0.03 | 67%±0.01
B2 |  | 75%±0.04 | 80%±0.01
